{"source": "paper PMC5357137", "about": "“Target DNA bending by the Mu transpososome promotes careful transposition and prevents its reversal” (eLife, 2017)", "proteins": {"B1": {"name": "MuA transposase lacking domain Iα (residues 1–76) (enzyme)", "chain": "not shown", "notes": "MuA transposase of bacteriophage Mu; all constructs lacked domain Iα (residues 1-76); domain IIIβ (the C-terminal ~60 residues) is included; In the assay it stood with Mu end DNA fragments as the cleaved-donor complex (CDC); The crystal structure PDB 4FCY holds a shorter construct without domain IIIβ; also called MuA protein; WT"}}, "molecular_target": "the molecule itself", "assay": "SEC; CDCs formed from a 2:1 mixture of MuA protein and Mu end DNA at 30°C for ≥1 hr; 25 mM HEPES pH 7.4, 200 mM NaCl, 5% glycerol, 0.6 mM Zwittergent 3-12, 0.5 mM EDTA, no Mg2+; Superdex 200 Increase 10/300; tetramer peak collected"}
{"protein": "B1", "values": [{"measurement": "stoichiometry N", "result": 4}]}
